The test system of the series is PspGI restriction endonuclease (recombinant, pPspGIR70) (Pyrococcus species G-I-H). As to the kind of experiment: cleavage_in_vitro. The conditions noted are these: approximate titer of crude extract on T7 DNA; NEBuffer III, 65 C 1 h.

With T7 DNA, the activity (units/g cells) worked out at 20000.

Values taken from US5849558.
